Assay results taken from paper PMC7427093, “Revising the mechanism of p75NTR activation: intrinsically monomeric state of death domains invokes the "helper" hypothesis” (Scientific Reports, 2020).
Where “and” joins values, the source holds several entries; their conditions need not be identical. Identical values can stand only once.

Tests used:
[1] = biological target: p75NTR death domain (Homo sapiens) (UniProt P08138); test: homo-FRET; conditions: cited from earlier work
[2] = biological target: the molecule itself; test: cross-linking; spontaneous disulfide formation of purified protein in DMPC/CHAPS q = 1 bicelles, LPR 1,000:1 (repeated at 200:1), without reducing agent, room temperature; non-reducing SDS-PAGE at several time points; irreversible second-order kinetics

Chain of p75NTR death domain (P08138 341-424): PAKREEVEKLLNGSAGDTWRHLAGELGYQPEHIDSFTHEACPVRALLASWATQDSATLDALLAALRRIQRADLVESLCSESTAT

Molecule | Kd [1] | stoichiometry N [2]
p75NTR death domain (from UniProt P08138) | 49 µM | –
rP75-ΔECD-3CX-249C: rat p75NTR residues 245-425 with T249C, C279S, C379S, C416S (domain or fragment, UniProt P07174 245-425, looked up, p75 neurotrophin receptor (p75NTR), rat, UniProt P07174, residues 245-425 (transmembrane and intracellular domains); also called T249C mutant; p75-ΔECD-T249C; source: also in the membrane fraction of E. coli, not purified) TRGTCDNLIPVYCSILAAVVVGLVAYIAFKRWNSSKQNKQGANSRPVNQTPPPEGEKLHSDSGISVDSQSLHDQQTHTQTASGQALKGDGNLYSSLPLTKREEVEKLLNGDTWRHLAGELGYQPEHIDSFTHEASPVRALLASWGAQDSATLDALLAALRRIQRADIVESLSSESTATSPV | – | 2 and 4 and 6
